The results in this text go back to IntAct's records for PubMed 9312003.

Sequences and labels used below:
B1: ADP-ribosylation factor 6 (Homo sapiens), P62330 (parent)
chain: MGKVLSKIFGNKEMRILMLGLDAAGKTTILYKLKLGQSVTTIPTVGFNVETVTYKNVKFNVWDVGGQDKIRPLWRHYYTGTQGLIFVVDCADRDRIDEARQELHRIINDREMRDAIILIFANKQDLPDAMKPHEIQEKLGLTRIRDRNWYVQPSCATSGDGLYEGLTWLTSNYKS
partner: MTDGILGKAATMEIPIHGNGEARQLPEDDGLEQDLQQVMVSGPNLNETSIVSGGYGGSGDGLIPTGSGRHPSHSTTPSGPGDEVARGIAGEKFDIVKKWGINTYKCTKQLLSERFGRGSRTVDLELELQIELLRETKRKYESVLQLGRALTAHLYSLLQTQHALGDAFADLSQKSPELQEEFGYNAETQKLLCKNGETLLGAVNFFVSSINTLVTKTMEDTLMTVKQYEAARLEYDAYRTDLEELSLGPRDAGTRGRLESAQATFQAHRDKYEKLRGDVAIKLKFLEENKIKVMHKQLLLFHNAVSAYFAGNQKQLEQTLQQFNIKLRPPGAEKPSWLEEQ

Variants of B1 are the subject of this experiment. The settings on record: with arfp2_human ARFIP2, P53365.
On to T28N, for which the “effect of a mutation on the interaction” value is “decreasing interaction”.
